The target in this experiment is T1, ULBP6 (NKG2D natural ligand) (Homo sapiens (Human), UniProt Q5VY80 26-218).
T1 sequence: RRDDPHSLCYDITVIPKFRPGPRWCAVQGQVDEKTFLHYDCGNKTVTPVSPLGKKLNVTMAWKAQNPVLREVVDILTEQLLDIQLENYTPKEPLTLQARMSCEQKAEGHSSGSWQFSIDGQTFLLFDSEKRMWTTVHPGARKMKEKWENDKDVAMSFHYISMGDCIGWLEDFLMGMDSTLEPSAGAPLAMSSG
Put plainly: SPR, injection over captured mouse Fc-human NKG2D, 25 C. The source says:
Briefly, mouse Fc-human NKG2D was captured using an anti-mouse Fc antibody immobilized on a CM5 chip at a density of approximately 100 RU. […] Biacore 8K evaluation software was used for all data analysis.
Background: Surface plasmon resonance follows binding to a sensor surface in real time, without labels.

Experimental findings from patent US20250019444A1 (published 2025) are described below.

B1: soluble mouse Fc-human NKG2D dimer (Fc fusion, UniProt P26718 73-216, looked up)
chain: IWSAVFLNSLFNQEVQIPLTESYCGPCPKNWICYKNNCYQFFDESKNWYESQASCMSQNASLLKVYSKEDQDLLKLVKSYHWMGLVHIPTNGSWQWEDGSILSPNLLTIIEMQKGDCALYASSFKGYIENCSTPNTYICMQRTV
notes: also called mFc-hNKG2D; fusion protein of human NKG2D and murine Fc; not shown: murine Fc
As to B1, the binding result is given as “binds”.
